Results on one substance are retold here after publication PMC10135305.

The target in the experiment is C-terminal domain of catalase-3 (CAT-3) of Neurospora crassa (TDC3) (Neurospora crassa) (UniProt Q9C169). In words: SEC; Superdex 75 HR 10/300 on FPLC; TDC3 1 mg/mL injected, 0.75 mL/min; mass from gel filtration standards.

For orientation: stoichiometry N means the number of molecules, sites or subunits per partner or assembly.

With “C-terminal domain of catalase-3 (CAT-3) of Neurospora crassa (TDC3) (from UniProt Q9C169 568-719) (domain or fragment)”, the stoichiometry N came out at 2.
